Reference: US20160362672

B1: FVIIa-AE288 (protein)
chain: AVFVTQEEAHGVLHRRRRANAFLEELRPGSLERECKEEQCSFEEAREIFKDAERTKLFWISYSDGDQCASSPCQNGGSCKDQLQSYICFCLPAFEGRNCETHKDDQLICVNENGGCEQYCSDHTGTKRSCRCHEGYSLLADGVSCTPTVEYPCGKIPILEKRNASKPQGRIVGGKVCPKGECPWQVLLLVNGAQLCGGTLINTIWVVSAAHCFDKIKNWRNLIAVLGEHDLSEHDGDEQSRRVAQVIIPSTYVPGTTNHDIALLRLHQPVVLTDHVVPLCLPERTFSERTLAFVRFSLVSGWGQLLDRGATALELMVLNVPRLMTQDCLQQSRKVGDSPNITEYMFCAGYSDGSKDSCKGDSGGPHATHYRGTWYLTGIVSWGQGCATVGHFGVYTRVSQYIEWLQKLMRSEPRPGVLLRAPFPGSPGTSESATPESGPGSEPATSGSETPGTSESATPESGPGSEPATSGSETPGTSESATPESGPGTSTEPSEGSAPGSPAGSPTSTEEGTSESATPESGPGSEPATSGSETPGTSESATPESGPGSPAGSPTSTEEGSPAGSPTSTEEGTSTEPSEGSAPGTSESATPESGPGTSESATPESGPGTSESATPESGPGSEPATSGSETPGSEPATSGSETPGSPAGSPTSTEEGTSTEPSEGSAPGTSTEPSEGSAPGSEPATSGSETPGTSESATPESGPGTSTEPSEGSAPGSSS

Key:
[1] = molecular target: T1, soluble tissue factor (sTF), P13726
T1 chain: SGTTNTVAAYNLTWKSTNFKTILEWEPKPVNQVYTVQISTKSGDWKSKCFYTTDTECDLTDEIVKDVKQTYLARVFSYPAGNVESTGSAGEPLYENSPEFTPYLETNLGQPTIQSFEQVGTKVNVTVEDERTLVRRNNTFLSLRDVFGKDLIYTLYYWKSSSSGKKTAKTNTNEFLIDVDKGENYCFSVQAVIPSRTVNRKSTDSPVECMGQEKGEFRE

Molecule | Concentration by Activity (ng/ml), aPTT based factor assay (FIX-/FXI/-XTEN_AE864) [ng/mL] | Fraction Active (FIX-/FXI/-XTEN_AE864) [%] | enhancement of clotting activity against FIX-XTEN without a cleavage site (aPTT based factor assay) (FIX-/FXI/-XTEN_AE864) | Concentration by Activity (ng/ml), aPTT based factor assay (FIX-DFTRVVG-XTEN_AE864) [ng/mL] | Fraction Active (FIX-DFTRVVG-XTEN_AE864) [%] | enhancement of clotting activity against FIX-XTEN without a cleavage site (aPTT based factor assay) (FIX-DFTRVVG-XTEN_AE864) | Concentration by Activity (ng/ml), aPTT based factor assay (FIX-KLTRAET-XTEN_AE864) [ng/mL] | Fraction Active (FIX-KLTRAET-XTEN_AE864) [%] | enhancement of clotting activity against FIX-XTEN without a cleavage site (aPTT based factor assay) (FIX-KLTRAET-XTEN_AE864) | FVIIa activity by soluble tissue factor (sTF) induced clotting (Stago STA-Clot FVIIa activity assay kit) [1]
FXI protease (activated factor XI, FXIa) | 11 | 40 | In all three cases the presence of a FXI cleavage site enhanced the clotting activity by greater than 30-fold | 9 | 34 | In all three cases the presence of a FXI cleavage site enhanced the clotting activity by greater than 30-fold | 7 | 30 | In all three cases the presence of a FXI cleavage site enhanced the clotting activity by greater than 30-fold | 
B1 |  |  |  |  |  |  |  |  |  | an activity equivalent to 112 U/ml of FVIIa activity
